The results in this text go back to patent US20250000976A1 (NATIONAL RESEARCH COUNCIL OF CANADA, published 2025).

Residue numbers refer to the chain shown, from its start.

T1: hBCMA-ECD-FC5VHH (human, UniProt Q02223 1-54, biotinylated in vivo ; biotinylated in vivo on the tag of the carrier part, which is not in the letters)
T1 construct: Made in HEK-293 cells, monomeric SEC fraction; The methods say about 500 RU captured on an SA chip; the results say immobilised on a CM5 chip; also called hBCMA-FC5; human BCMA-ECD; not shown: FC5 VHH carrier, any linker, and the His and biotinylation tags
T1 sequence: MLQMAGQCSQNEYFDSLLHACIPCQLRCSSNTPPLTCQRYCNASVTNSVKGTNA

B1: hBCMA-3F2 (VHH)
VHH: QVQLVESGGRLVQTGDSLRLTCEISGHTSNQFVLAWFRRPPGKEREVVATRFWGGGSPYYSDSVRGRFAIAIDDAKNTAYLQMSSLKPEDTAVYYCAATKDILSRGYDYWGQGTQVTVSS
modifications: single biotin on the C-terminal AviTag
notes: not shown: C-terminal His tag and AviTag biotinylation signal from pMRO vector
B2: hBCMA-H1 (VHH)
VHH: QVQLVESGGGLVQPGGSLRLSCAASGSGFGTHVMGWYRQAPGKPRELVAAISSAGSTFYRDSVKGRFTVSRDNAKNTMYLQMDRLKPEDTAVYYCNGAPWADEPVKVWNWGQGTQVTVSS
modifications: single biotin on the C-terminal AviTag
notes: as for B1
B3: hBCMA-D2 (VHH)
VHH: B2 VHH with G28I, H32Y, V33N, P44Q, S56N, P87Y, Y94N, A101G, E103A, P104L
modifications: single biotin on the C-terminal AviTag
notes: as for B1
B4: hBCMA-F2 (VHH)
VHH: QVKLEESGGGLVKPGGSLRLSCGASGNSFGAYNMGWYRQAPGKQRELVAAISSTGNTFYRDSVRGRFTVSRDNAKSTMSLQMERLKPEDTAVYLCNGAPWGDDPVKVWSWGQGTQVTVSS
modifications: single biotin on the C-terminal AviTag
notes: as for B1
B5: hBCMA-B5 (VHH)
VHH: QVKLEESGGGLVQPGGSLRLSCAASGSIFGTYNMGWYRQAPGKQRELVAAISSAGNTFYRDSVKGRFTVSRDNAKNTVYLQMDRLKYEDTAVYNCNGAPWADAEVKVYNWGQGTQVTVSS
modifications: single biotin on the C-terminal AviTag
notes: as for B1
B6: hBCMA-VcMRo1(V1/V6) (VHH)
VHH: EVQLQQSGGGLVQAGESLTISCAVFGDPITVATMGWYRQAPGKLRELVAAISSAGSTFYRDSVRGRFTVSRDNAKSTMYLQMDRLKVEDTAVYSCNGAPWGDAPVKVWTWGEGTQVTVSS
modifications: single biotin on the C-terminal AviTag
notes: as for B1
B7: hBCMA-2F10 (VHH)
VHH: QVQLVESGGGLVQSGNSLRLSCSISGHTTKNFVMAWFRRAPGKERAIVATRVWSGGSPWYSESAKGRFTISIDDARNTAYLQMNNLKPEDTAVYYCAATKDIMSRGYVYWGLGTQVTVSS
modifications: single biotin on the C-terminal AviTag
notes: as for B1
B8: hBCMA-2C3 (VHH)
VHH: QVKLEESGGGLVQTGDSLRLACTISGRATDHFVMAWFRRAPGKEREYVATRVWSGGSPYYLDSAKGRFAIAIDNAKNTAYLQMNNLKPEDTAVYYCAATKDIMSRSYDYWGLGTQVTVSS
modifications: single biotin on the C-terminal AviTag
notes: Variant of E7 with the same CDRs; also called VHH #2; not shown: C-terminal His tag and AviTag biotinylation signal from pMRO vector

One assay deals with T1, hBCMA-ECD-FC5VHH. The assay is described as follows: SPR (Biacore T200), VHH 20-500 nM over BCMA-ECD surface, 25 C. The protocol: For surface Plasmon resonance, 15 selected VHHs were passed though size exclusion columns, Superdex 75 (GE Healthcare), respectively, in 10 mM HEPES, pH 7.4, containing 150 mM NaCl, 3 mM EDTA, monomeric sdAb fractions were collected and protein concentrations were determined by measuring absorbance at 280 nm (A280). Analysis were performed with Biacore T200 instrument (GE Healthcare). All measurements were carried out at 25° C. in 10 mM HEPES, pH 7.4, containing 150 mM NaCl, 3 mM EDTA and 0.005% surfactant P20 (GE Healthcare). Approximately 500 RUs of the recombinant monomeric BCMA-ECD (obtained after SEC purification of the BCMA-ECD-FC5VHH) were captured on SA sensor chip (GE Healthcare) at a flow rate of 5 uL/min. Various concentration of the monomeric VHHs (20-500 nM) were injected over BCMA-ECD surface, respectively using an SA surface as a reference at a flow rate of 40 μL/min. Surfaces were generated by washing with running buffer. Data were analysed with BIAevaluation 4.1 software.
The monomeric fraction of all 15 VHHs were used for SPR experiment where the human BCMA-ECD or mouse BCMA was immobilized onto the CM5 dextran chip and various VHH concentration (20-500 nM) were passed over the sensor chip.
For orientation: In SPR one partner is held on a chip, and binding of the other changes the refractive index at the surface.
In the case of B1, binding was characterised by a dissociation constant (Kd) of 0.631 nM, the dissociation rate constant (koff) is 0.00253 s⁻¹ and the kon is 4.01e+06 M⁻¹ s⁻¹.
The matching figures for B2: 0.152 nM, 0.000462 s⁻¹ and 3.05e+06 M⁻¹ s⁻¹.
With B3, the affinity, expressed as Kd, was 0.403 nM; the off-rate (koff) is 0.000978 s⁻¹; the kon turned out to be 2.42e+06 M⁻¹ s⁻¹.
The matching figures for B4: 0.0683 nM, 0.000349 s⁻¹ and 5.11e+06 M⁻¹ s⁻¹.
The matching figures for B5: 0.22 nM, 0.00237 s⁻¹ and 1.08e+07 M⁻¹ s⁻¹.
For B6, the Kd was 0.303 nM, the off-rate (koff) came out at 0.000262 s⁻¹ and the association rate constant (kon) was determined as 867000 M⁻¹ s⁻¹.
The matching figures for B7: 0.216 nM, 0.00091 s⁻¹ and 4.22e+06 M⁻¹ s⁻¹.

A further assay concerns the target T1, hBCMA-ECD-FC5VHH. Briefly: SPR.
B8: the binding result is given as “binds”.

By Kd is commonly meant a measure of binding affinity in units of concentration. Higher therefore signals a looser complex. Broadly, the koff is a measure of how fast the partners let go of each other. Read a low koff as slow dissociation. As a reminder, the kon is a measure of how fast the partners come together.
